Assay [1] concerns the target T1, holo-Transferrin human (Homo sapiens, UniProt P02787).
T1 construct: human transferrin (serotransferrin), iron-saturated form, commercial preparation; same polypeptide as apo-Tf; also called holo-Tf; source: bought: Sigma-Aldrich
Description: ITC; in solution, PBS pH 7.4, MicroCal PEAQ-ITC; fitting model: sequential binding sites, number of sites 2. The following applies: both partners purified. (In general: In ITC the heat of successive injections is recorded.)

Assay [2] has as its target T2, apo-Transferrin human (Homo sapiens, UniProt P02787).
T2 construct: human transferrin (serotransferrin), iron-free form, commercial preparation; Iron-free form of transferrin; same polypeptide as holo-Tf; also called apo-Tf; source: bought: Sigma-Aldrich
The description is as above. The following applies: both partners purified.

T1 sequence (P02787 20-698): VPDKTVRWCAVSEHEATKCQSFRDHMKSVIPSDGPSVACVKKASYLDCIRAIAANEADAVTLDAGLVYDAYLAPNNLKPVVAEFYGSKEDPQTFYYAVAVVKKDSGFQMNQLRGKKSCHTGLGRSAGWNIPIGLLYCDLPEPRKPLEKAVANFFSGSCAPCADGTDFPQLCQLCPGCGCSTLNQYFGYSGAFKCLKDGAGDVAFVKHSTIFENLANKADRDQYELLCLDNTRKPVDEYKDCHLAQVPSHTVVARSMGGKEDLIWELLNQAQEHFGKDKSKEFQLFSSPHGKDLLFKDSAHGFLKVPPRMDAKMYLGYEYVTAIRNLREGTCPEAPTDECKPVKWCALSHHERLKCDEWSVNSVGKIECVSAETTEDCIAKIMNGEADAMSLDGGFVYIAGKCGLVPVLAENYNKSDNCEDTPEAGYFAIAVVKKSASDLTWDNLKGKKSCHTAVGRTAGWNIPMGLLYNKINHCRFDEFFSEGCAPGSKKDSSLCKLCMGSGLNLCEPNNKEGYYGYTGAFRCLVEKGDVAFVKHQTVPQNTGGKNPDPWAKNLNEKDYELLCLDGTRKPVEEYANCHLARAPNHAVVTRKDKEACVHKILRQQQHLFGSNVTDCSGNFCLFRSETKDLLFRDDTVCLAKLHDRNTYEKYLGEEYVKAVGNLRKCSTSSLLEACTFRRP
T2 sequence (P02787 20-698): as above

B1: aTf1 nanobody (anti-human transferrin single-domain antibody) (VHH)
VHH: QVQLVESGGGLVQPGGSLTLSCAASGFTFSTYAMKWVRQAPGMGLEYVASINNGGTSTFYSASVKGRFTISRDNAKNTLYLQLNSLKTEDTAMYYCARINEYSTRGQGTQVTVSS
notes: variable domain of aTf1; HA-tag and His-tag follow it; source: generated in the bacterial periplasm, isolated and purified
In the case of B1, in assay [1], the “KD1 (sequential binding sites, site 1)” value is about 0.44 nM and the “KD2 (sequential binding sites, site 2)” value was about 1.44 nM. The “KD1 (sequential binding sites, site 1)” value in assay [2] is about 99.4 nM.

B2: aTf2 nanobody (anti-human transferrin single-domain antibody) (VHH)
VHH: QVQLVESGGGSVQAGGSLRLSCAVSGYMYSTNCMGWFRQAPGKEREGVAAIYTGGGSTYYPDSVKGRFTISQDNAKNTVYLQMNSLKPEDTAMYYCAAMRHCPYGGNWDHPVNYLGQGTQVTVSS
notes: variable domain of aTf2; long CDR3, cysteines in CDR1 and CDR3; HA-tag and His-tag follow it; source: generated in the bacterial periplasm, isolated and purified
For B2, in assay [1], the “KD1 (sequential binding sites, site 1)” value was about 0.94 nM and the “KD2 (sequential binding sites, site 2)” value was about 0.75 nM. Further, in assay [2], the “KD1 (sequential binding sites, site 1)” value is about 0.82 nM and the “KD2 (sequential binding sites, site 2)” value is about 14.5 nM.

The values above are taken from paper PMC9307980, “High-Affinity Single-Domain Antibodies for Analyzing Human Apo- and Holo-Transferrin” (Acta Naturae, 2022).
